In PMC7094404 (Archives of Biochemistry and Biophysics, 2008) one finds Kd, koff and catalytic constant kcat for the 11-mer peptide ABZ-…-DNP data, which are given here for 8 substances.

Usually pKd stands for the Kd on a negative log10 scale, so that one unit is a factor of ten. A low value points to a large Kd. Usually koff stands for the rate constant with which the complex falls apart. Read a high koff as fast dissociation.

In assay [1] the target is SARS-CoV main protease Δ(306) (SARS-CoV). Description: AUC.
Assay [2] shares this target.
Assay [3] addresses SARS-CoV main protease Δ(304–306) (SARS-CoV). Description: AUC.
Assay [4] has the same target.
In assay [5] the target is SARS-CoV main protease Δ(302–306) (SARS-CoV). Put plainly: AUC.
For assay [6], the target named is SARS-CoV main protease Δ(303–306) (SARS-CoV). Description: AUC.
Assay [7] shares this target.
For assay [8], the target named is SARS-CoV main protease Δ(297–306) (SARS-CoV). Description: AUC.
For assay [9], the target named is SARS-CoV main protease Δ(301–306) (SARS-CoV).
The target in assay [10] is SARS-CoV main protease Δ(298–306) (SARS-CoV). Description: AUC.
The target in assay [11] is SARS-CoV main protease Δ(305–306) (SARS-CoV). Put plainly: AUC.
For assay [12] the target is unchanged.

pKd: −log10 of the molar value.

In assay [1], “SARS-CoV main protease Δ(306) (domain or fragment)” had a pKd of 7.00 and a koff of 0.6 s⁻¹. This substance also returned a catalytic constant kcat for the 11-mer peptide ABZ-…-DNP in assay [2] of 0.043 s⁻¹.
“SARS-CoV main protease Δ(304–306) (domain or fragment)” had a koff in [3] of 0.01 s⁻¹. This substance also yielded a catalytic constant kcat for the 11-mer peptide ABZ-…-DNP in assay [4] of 0.027 s⁻¹.
On to “SARS-CoV main protease Δ(302–306) (domain or fragment)”, for which the koff in assay [5] was 0.01 s⁻¹.
For “SARS-CoV main protease Δ(303–306) (domain or fragment)”, the pKd in [6] was 6.47. For the same substance, in [7], the catalytic constant kcat for the 11-mer peptide ABZ-…-DNP turned out to be 0.022 s⁻¹.
In assay [8], “SARS-CoV main protease Δ(297–306) (domain or fragment)” had a pKd of 3.41 and a koff of 123 s⁻¹.
In assay [9], “SARS-CoV main protease Δ(301–306) (domain or fragment)” displayed a catalytic constant kcat for the 11-mer peptide ABZ-…-DNP of 0.025 s⁻¹.
With “SARS-CoV main protease Δ(298–306) (domain or fragment)”, in assay [10], the pKd was 3.50 and the koff was found to be 36 s⁻¹.
For “SARS-CoV main protease Δ(305–306) (domain or fragment)”, in assay [11], the pKd was 7.10 and the koff stood at 0.14 s⁻¹. Besides, the catalytic constant kcat for the 11-mer peptide ABZ-…-DNP in [12] is 0.039 s⁻¹.
